Measurements as given in patent US20240084004A1.

Legend:
[1] = biological target: T1, canine PD-1 (canine Programmed Death Receptor 1) antigen (canine); test: SPR (Biacore T200), canine PD-1 immobilized by amine coupling, antibody as analyte, 1:1 fit
T1 sequence: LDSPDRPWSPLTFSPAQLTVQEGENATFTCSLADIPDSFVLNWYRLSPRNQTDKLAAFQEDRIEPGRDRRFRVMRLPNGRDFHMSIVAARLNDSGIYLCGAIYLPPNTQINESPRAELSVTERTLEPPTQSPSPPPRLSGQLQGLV

[2] = biological target: T1, canine PD-1 (canine Programmed Death Receptor 1) antigen (canine); test: SPR (Biacore T200), canine PD-1 immobilized by amine coupling, antibody as analyte, 1:1 fit; off-rate below detection limit

B1: Murine 2H9 (mouse anti-canine PD-1 monoclonal antibody) (antibody, V domains shown)
VH: EVQLQQSVAELVRPGASVKLSCTASGFNIKNTYMHWIKQRPEQGLEWIGRIAPANVDTKYAPKFQGKATITADTSSNTAYMQLSTLTSEDTAIYYCVLIYYDYDGDIDVWGTGTTVTVSS
VL: DIQMNQSPSSLSASLGDTITITCHASQNINVWLSWYQQRPGNIPKLLIYKASHLHTGVPSRFSGSGSGTGFTLTISSLQPEDIATYYCQQGQSWPLTFGAGTKLELK
- kon [1]: 23000 M⁻¹ s⁻¹
- Kd [2]: < 0.2 nM
- koff [2]: < 5e-06 s⁻¹

B2: Murine 3B6 (mouse anti-canine PD-1 monoclonal antibody) (antibody, V domains shown)
VH: QIQLVQSGPELKKPGETVKISCKASGYTFTTYGMSWVKQAPGKGLKWMGWINIYSGIPTYADDFKGRFAFSLETSASTAYLQIDNLKNEDTATYFCARFDGPDYWGQGTTLTVSS
VL: DIVMTQSPSSLAVSVGRKVTMSCKSSQSLLNSVNQKNYLAWYQQKPGQSPKVLVYFASARVSGVPDRFIGSGSGTDFTLAISSVQAEDLTTYFCQQYFSTPLTFGAGTKLELK
- Kd [1]: 2 nM
- koff [1]: 3.4e-05 s⁻¹
- kon [1]: 18000 M⁻¹ s⁻¹
